Patent US20250346646A1, “COMPOUNDS USEFUL TO TREAT METABOLIC DISORDERS” (President and Fellows of Harvard College, priority 2016, published 2025)

Legend:
Mouse aP2 [1] = target: T1, Mouse aP2 (Mus musculus, UniProt P04117); experiment: Biacore binding of CA33 to lipid-bound and lipid-free aP2
T1 construct: 10 His-tag (N, cleaved yes); TEV protease site (N, cleaved yes); made in house; host or cells: E. coli BL21DE3
T1 sequence (P04117 1-132): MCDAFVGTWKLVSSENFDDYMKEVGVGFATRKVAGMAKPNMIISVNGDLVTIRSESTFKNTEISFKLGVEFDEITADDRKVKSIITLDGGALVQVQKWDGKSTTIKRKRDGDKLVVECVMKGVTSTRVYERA
Experimental: The affinity of anti-aP2 binding to aP2 (recombinantly generated in E. coli as described below) was determined by biomolecular interaction analysis, using a Biacore T200 system (GE Healthcare). Affinipure F(ab′)2 fragment goat anti-mouse IgG, Fc fragment specific (Jackson ImmunoResearch Lab, Inc.) in 10 mM NaAc, pH 5 buffer was immobilized on a CM5 Sensor Chip via amine coupling chemistry to a capture level between 4500-6000 response units (RU) using HBS-EP+(GE Healthcare) as the running buffer. Anti-aP2 IgG was diluted to between 1-10 μg/ml in running buffer. A 60 s injection of anti-aP2 IgG at 10 μl/min was used for capture by the immobilized anti-mouse IgG, Fc then aP2 was titrated from 25 nM to 3.13 nM over the captured anti-aP2 for 180 s at 30 μl/min followed by 300 s dissociation. The surface was regenerated by 2×60 s 40 mM HCl and 1×30 s 5 mM NaOH at 10 μl/min. The data were analyzed using Biacore T200 evaluation software (version 1.0) using the 1:1 binding model with local Rmax. For CA33, 60 s injection of the antibody at 10 μl/min was used for capture by the immobilized anti-mouse IgG, Fc then aP2 was titrated from 40 μM to 0.625 μM over the captured anti-aP2 for 180 s at 30 μl/min followed by 300 s dissociation. The surface was regenerated by 1×60 s 40 mM HCl, 1×30 s 5 mM NaOH and 1×60 s 40 mM HCl at 10 μl/min. Steady state fitting was used to determine affinity values. […]

Mouse aP2 [2] = target: T1, Mouse aP2; experiment: Biacore antibody cross-blocking vs H3; type: binding
Experimental: FIG. 10B is a table of antibody crossblocking of H3 vs. CA33, CA13, CA15, and CA23 as determined by Biacore analysis. ++=complete blocking; +=partial blocking; −=no crossblocking.
The assay was performed by injecting mouse aP2 in the presence or absence of mouse anti-aP2 IgG over captured rabbit anti-aP2 IgG. Biomolecular interaction analysis was performed using a Biacore T200 (GE Healthcare Bio-Sciences AB). Anti-aP2 rabbit IgG transient supernatants were captured on the immobilized anti-rabbit Fc surfaces (one supernatant per flowcell) using a flow rate of 10 μl/min and a 60 s injection to give response levels above 200RU. Then mouse aP2 at 100 nM, 0 nM or mouse aP2 at 100 nM plus mouse anti-aP2 IgG at 500 nM were passed over for 120 s followed by 120 s dissociation. The surfaces were regenerated with 2×60 s 40 mM HCl and 1×30 s 5 mM NaOH.
In further analysis, epitope identification based on hydrogen-deuterium exchange mass spectrometry experiments, for example, as described by Pandit et al. (2012) J. Mol. Recognit. […] Co-crystallization of the Fab fragments of CA33 and H3 with aP2 (FIG. 10D) was then conducted. […] Despite the partial blocking of H3 by CA33, we observed that there is in fact no direct overlap of their epitopes. Instead, the significant movement of the region around aP2 Phe58 may partially block binding of one antibody by the other in the competition experiments. […]

aP2 knockout mice = experiment: Glucagon response of aP2 knockout mice given aP2, with or without CA33 preincubation; type: in vivo, mouse; settings: CA33 preincubated with aP2
Excerpt: Mouse and rabbit-mouse hybrid monoclonal antibodies raised against the human and mouse aP2 peptides were produced and screened. […] The systemic improvement in glucose metabolism was further verified using a glucose tolerance test (GTT).

glucagon/aP2 complex = glucagon/aP2 complex (Homo sapiens, UniProt P01275+P15090); experiment: Blitz binding to tethered aP2 in glucagon plus mAb solution; settings: biotinylated aP2 on streptavidin probes
Experimental: Binding affinity studies were performed using a Blitz instrument (Pall Life Sciences, Menlo Park, CA). Biotinylated aP2 was attached to streptavidin probes.

[3] = target: T2, glucagon/aP2 complex in wild-type serum (Mus musculus, UniProt P04117); experiment: Co-immunoprecipitation of glucagon and aP2 from serum; settings: pre-incubation of wild-type serum with antibody
T2 construct: from tissue; host or cells: serum of wild-type mice
T2 sequence (P04117 1-132): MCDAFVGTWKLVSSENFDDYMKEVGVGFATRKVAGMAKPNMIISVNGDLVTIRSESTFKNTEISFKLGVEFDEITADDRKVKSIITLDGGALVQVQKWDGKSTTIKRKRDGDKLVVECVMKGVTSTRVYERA

glucagon/aP2 complex, sequence (P15090 whole entry): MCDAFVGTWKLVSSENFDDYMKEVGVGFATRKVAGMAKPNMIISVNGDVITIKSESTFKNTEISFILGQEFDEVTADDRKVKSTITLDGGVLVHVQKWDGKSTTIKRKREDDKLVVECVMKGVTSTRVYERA
glucagon/aP2 complex, sequence (P01275 53-81 limits assumed): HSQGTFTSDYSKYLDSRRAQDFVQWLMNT

- Kd (Mouse aP2 [1]; De-lipidated mouse aP2, Biacore): 4.7 µM
- Kd (Mouse aP2 [1]; Lipid-loaded mouse aP2, Biacore): 9.3 µM
- Blocking of H3 binding to aP2 (Mouse aP2 [2]): partially blocked
- Binding to the glucagon/aP2 complex (glucagon/aP2 complex): strong binding
- Co-immunoprecipitation of glucagon and aP2 [3]: prevents co-immunoprecipitation
B1: CA33: low-affinity anti-aP2 monoclonal antibody, rabbit-mouse hybrid, produced and purified by UCB; VL Seq. ID 28, VH Seq. ID 41 (antibody, V domains shown)
VH: QSVEESGGRLVTPGTPLTLTCTVSGFSLSTYYMSWVRQAPGKGLEWIGIIYPSGSTYCASWAKGRFTISKASTTVDLKITSPTTEDTATYFCARPDNDGTSGYLSGFGLWGQGTLVTVSS
VL: DVVMTQTPASVSEPVGGTVTIKCQASEDISRYLVWYQQKPGQPPKRLIYKASTLASGVPSRFKGSGSGTDFTLTISDLECDDAATYYCQCTYGTYAGSFFYSFGGGTEVVVE
modifications: Rabbit Ab 909 VH region; Rabbit Ab 909 VL-region
- Glucagon responsiveness of aP2 knockout mice (aP2 knockout mice): prevents that
